Test results taken from PMC6131177.

What was measured:
[1] = biological target: T1, Bacteriorhodopsin (Halobacterium salinarum S9), P02945; test: circular dichroism in the visible range; bR in native purple membrane (PM); 700-400 nm, 20 °C; a biphasic signal marks the trimer; conditions: remark: other sources report otherwise
T1 chain: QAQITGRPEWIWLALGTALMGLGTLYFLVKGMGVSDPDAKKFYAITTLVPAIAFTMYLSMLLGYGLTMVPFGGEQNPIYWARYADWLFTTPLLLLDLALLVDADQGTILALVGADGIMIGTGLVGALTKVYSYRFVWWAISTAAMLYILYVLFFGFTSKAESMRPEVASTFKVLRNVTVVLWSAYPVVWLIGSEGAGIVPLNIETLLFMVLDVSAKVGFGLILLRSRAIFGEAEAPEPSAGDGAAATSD

[2] = biological target: T1, Bacteriorhodopsin (Halobacterium …); test: circular dichroism in the visible range; bR in PMND (cE3D1 nanodisc assembled directly from PM), SEC-purified early fractions 1 to 6; 700-400 nm, 20 °C; a biphasic signal marks the trimer; conditions: remark: other sources report otherwise

B1: Bacteriorhodopsin, P02945 14-262 (natural protein)
chain: QAQITGRPEWIWLALGTALMGLGTLYFLVKGMGVSDPDAKKFYAITTLVPAIAFTMYLSMLLGYGLTMVPFGGEQNPIYWARYADWLFTTPLLLLDLALLVDADQGTILALVGADGIMIGTGLVGALTKVYSYRFVWWAISTAAMLYILYVLFFGFTSKAESMRPEVASTFKVLRNVTVVLWSAYPVVWLIGSEGAGIVPLNIETLLFMVLDVSAKVGFGLILLRSRAIFGEAEAPEPSAGDGAAATSD
modifications: here or on the partner: retinal Schiff base (residue not given); retinal Schiff base (residue not given)
[1]
  stoichiometry N: 3
[2]
  stoichiometry N: 3
